11 sequences from a protein production outcome set (Wang et al. 2014) can be followed below.
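Note: failed if final PepcDB status was selected cloned or expressed and not failed if soluble or beyond.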

This data set can be described thus: label from the status in PepcDB records.
Regarding “MSYKVLPLSEVMSHEFGLIEGNFHNISEADIASAIPSHLTFEQLKQHLYEGNLALVSDTPQTPALLSYNDPIGPKTWRLNSEVISELSDDAANNLLAITKTTRATGGYRSCIGETSTLERVYTPQPIATESEEEITKEFEYSFEVGCSDATIKKMVHSDFALAKTEKENAVTRWEQTNTEQGTRYTALCVFDEPKRLNIHIADDNLGLTPLEAVTLQKAGSCKTDEGFIPVVPAVRLGERLGLPTEGYYYHFNDGELVQEYKILGEEKWAFYATQSTQDKLNDERGFTKDQSAILVYWKLADQIIENQYIIYLERQITREELDNLSEDWLCENGIKLDIPALFDAVKQPEEARSEGNNDETQAEQTAATHTVTVGEDWQSIAELYGMGAKALLLLNPVFEADPLSLAVGDEIIVAEKQQQQAPDKKNTFPPLRPQTYNNIRNSHYQHSDPLLGLTKYRAINTADCIEGDVVILNLKDATSSIVFAKSCTRPEGCIEIGDQQESISNFGPWSFFFAQANANPAAVIPAIQATQAQMAMGSSAAVAGSPEQMQQTQTAAMQLDKLAGTLKEKIVEGYRWQVEGIGALFAMQQSLFGDNTQYTDQDLRQVTTAQSRVRVHITEPQGGEFYPHVQGYHVDDTRIPIKYVKQGNNGQLSVAIEENGPTIYWTPEENGEASWQTTPDHSDGFEKDDILVTPIHSDSDANVTVTPAPEEKDWRDAILVFPESSGIAPLYVVYKESPRDKPGVVTGKGEDIFGIWLADAGKDLGAPIPSQIADKLRGREFSSFDAFREGFWYAVGEDQTLINQFSRANQRLIKRGRSPFSLPSEQVGGRQRYELHHKEEIQYGGEVFHVDNLCVLTPKRHISIHKDQ”, the protein production entry is “failed”. Next, “MSYLDTATDLPNQTLFLEYLNIALSNARRHHAQVGVLLCQINNWSDLKRKRGDAVANAFLQEAGQKLKSNLRNGDIVSRWDKDEFIFLVSKVQDTSSLLGIAQRLMKPVLAPVTAGGRPFQPEITYGVALYPVDGEQVNDLIGHIRENLQQLLPQPTNPGSGLEHHHHHH”: “not failed”; “MSYNFEEERVIKEIREKNAKRVLLQFPEGLKYFSIDIVKKLREKLPNVNFIISGEPSWGACDIAEDEAQQVNADLIIHFGHTPYTWYYPKFPTIFINAESNLDISENALHSLENDISKYNGRKISLTATLQHVRLLSKIKSFLEDKGYDIVIGKPSNRFMFDGQVLGCDYKAAEVEADIYVIVSGGLFHALGLGLATNKPTIKLDPYLQKSEDITNDVRKILKVRYGKILQALDKRSWVIIQGVKVGQNRPNMIKYFYDKLTEKGYDVFTVTNKVLTLDILRNLDRNYIDVFLVTSCPRLPIDDLYNYEKPVLTPGEAKMIINNSLEPYIFPW”: “failed”. Consider “MSYSKEVNRYVFPLVATNLVQVLIGQISLHFAVDNSNAALSGISVIQNFLFAFGGILGAFSLSFNIRGAKAFYNKEYQRFKNLLKSSLLIDIGIGLSFILFCLGLSRPFLKVFYGFDGQLLELSTTYFKIMSPYILLTLLIFLFSNLLKIEKKTKPIFWIGTLSSVLDVLLNYYLVPLLGIRGAAISSILSLLVIVLGYFIFVKSLVFQALQEASTSKLELIRFGIPLSIQEILESVLFIMAFDAFMGRQGLRILSIYAVVSQLFAIVRTPAFMYAGSIAIFLPEARKKEDEKALIATIFRNSYAVIFIFACLVTVFSNPFAHFLSDEVIDNVLPFTLYTVVVMGATPLYESSKMLLQSNDDEQWVLKITSIVNILSILILLVLQLMGKQTYQSLYGIYGLSLIVLSILFIKRNSEKRVSSRKMTM”, for which the protein production entry was “failed”. Take “MTAASFAQILLLLGTTALVVAVFQWLRVPSSLAYLVVGVLLGPHTGGPVIENPEIHGAAEFGIVFLMFTIGLNLSLPQVHALRHLVLGLGTGQVVLTTLVVGAAAFAFGLSPEAAFVVGAVFAQSSTAIIGKQLAEQGEEYSRHGRLAVAMSVFQDVTAVPLIVVVPVLAVPSLRVLGESLAWALAKAVLAFVLVFFAGRWLLRPLFHAVASRRSAELFTLTVLLVSLGAGGLTYQLGLSVAFGAFLVGMMLGETEFRHQVESTIRPFRDVLLGLFFVSIGMLFDPSLMEGTWQWALGGAFVLLAAKTVLVAVLVRATGIDLATAWRVGLLVAVGGEFGFALLAIALDAGVISQLTGQIVLMAVLLSMITAPFLIRYNRVLVEGWFRPPPGEEGALSAGPGVAGSPHDHVIICGYGRIGQNIGRFLEEERIPYVALDLDPQRVKEARIACEPVYYGDSSERDMLEAVGIGKARLVVVSHEDLAAAHKVLHHAAALRPGLPVMVRTRDESHVEELRRAGAAEVVPETLEAGLMIASQALLLLNVPLSRVARRIREQRLNRYLLLREFFRGDETFSDDVQSQDGDRLRAVPLPPGCRVAGCTLAELALENVVVTALVRHGVRELAPAPETRLAEGDAVVLFGAVSDLDKAERRLLG”: the protein production entry is “failed”. Then “MTAEILVFSLIIPLVVAFILPALKPKAATWLSAISFLIPMFVTLGFLLTTKETIEVPIMSLPAPVGEFYLLADPISNAFGFTICLVSAMVAFYSLPYMKHRFEEMLHDGEIRSIEWEFRKYWFLYNLYAVAMLWLVYAGNFILLYIFLEISLLASFLLIYMYGYGNRQWVAVLYFVWTHIAGVLALLGILIIGFENSTMAFNAVKAVGFTAWLLIFLGMLVKLPGLGPHIWLPWAHAEAPTPVSALLSPLTVGLAGYVLLRVYMIDSSFIDQYRDIIIAYAIVSSIYAGFSVFKQKDYKRLLAYSTVSQMGYVLIALCLGSYGLLGVVIQYISHAFGKSILFMTAGAIIASFHGLRDINRMSGMHEYVPTIANAALLGFMTLSGILTIGMFGEFYILAGLTTIYGFNLAVILAVVVVFIISGLYSFYTMKVIYYGTPAGYEKPKVSRLLDVPLYVVAFFSVAFIFPPLSTALLSGLKVVLGIGGVMP”, with “failed”; and “MTAGGPLITAALTAYDAEDTIAGALASALAQDWPSLEVLILDDASRDGTRKVIEAVITERGDQGPPIRLIALDKNGGVAQARNRLLAEAKGEVIAFFDDDDISAPDRLRRQYARLIAAERETGAGLVFCHAARCQILPDGGERLEGTMGEEGGPIPGGDAVVRRILLGTLSPGVRGSCATCSQMARTASYRALGGFDPTLRRAEDTDLCLRAALGGAVFAGLSAPLVTQRLTLGGDKTPREDHRAYQALLNKHRATLAKTGWLTFYARWQDIRLAHLEGRTGRVVLGLVGLGLSHPLKLARKIVWSLPAAGTRAAYHRQHRKDTS”, with “failed”. As for “MTAGLSAVVVGADRLGNIPDLLKGHNISITHHISGRDPSHQKKTLQLPSGTQLVILLTDFLGHNVMKTFRHAAQRGGIRVVACRRSVCSMQQALHQCGLCARSLEHHHHHH”, the protein production result was “not failed”. As to “MTAHFRPAVYDLPRDGHTVFRWEHPPQQATVELERLQRKQSLAAAFRVFARLGFDMGGAGHITVRDPGRPDHFWVNPVGVYFGHVRVRDLLLVNPEGAVIEGEGALNLAAFAIHAALHEAHPEVVAAAHAHSLYGKAWSSLGRLLDPLTQDACAFYERHGLFDNFSGVVLEASEGVRIAAALAGRKALILQNHGLLTVGETVEAAVWRFIAMDNAAQTQLLAEAAGTPRPIPHEVARHTARQVGTEFGGWFSFQPYRERIVREEPDFLDLEHHHHHH”, the protein production result is given as “failed”. Next, “MTAHWRYLNSLQPLSNLFIQAALRRKVTGTQLPDLGLRSWIAVDNDKLEAYRKVCGFADSSLLPPTYPHALAFTLQMQLMTSPEFPFPLLGLIHLGNQIRTLRPLGGVSQLYISVQATDLRPHPKGATFTLLTQAEDGMGLLWEEESTLLCTAVHLEDAPVPMPEAYLRPLIELDRWRASAQIGREYAKVSGDYNPIHLSAASAKLFGFPRAIAHGMWLKARALAALEDHLPASNVQISVQFQKPVRLPADVTLSASAAGSHGEFRVEGQEGIVHMIGSWQPATD”: “failed”; “MTALKICLIGGSGFIGRHLAAQLASRGHRITIASRRTGLPDFRVLPSAELVSADIHDPGQLAGLIAGHDAVVSMVGILHGSRAQFEKAHAQLPEKIVDACRRQGVRRLVHVSALGAAQDAPSDYQQTKALGELAVESSGLDWTILRPSVVFGHGDAFLNMFAGLQKRLPVLPLAGAGCKMAPVWVEDVARAVCECLARKETEGRKLDLAGPETYTLAQLARLAGRASGHPRPVFGLPYGLAMLQAALMEWLPGPTLMSRDNVRSLQWDNVSDQPFPSALLGFEPAALSALAPGWLAGRDRNDTASRYRAKAAR”: “failed”.
